B1: Hairpin Ribozyme (parent)
chain: GUCCUCUUUCACGUGCGCGUGAAAGAGAGAAGUGAACCAGAGAAACACACGUUGUGGUAUAUUACCUGGUA

Variants of: B1
Assay: self-cleavage, relative activity (ratio to wild type); higher = more cleavage; co-transcriptional

Compared with A28U G40A, G29A G57U is lower in self-cleavage: 0.175 for the first, 0.0366 for the second.

Going from G29A G57A to A28C C65G, the self-cleavage rises from 0.141 to 0.229.

Going from G29C C50A to G27U U60G, the self-cleavage falls from 0.167 to 0.0793.

First: A28U G32C
Second: A28U G32A
The self-cleavage of the first is lower: 0.175 for the first, 0.234 for the second.

First: G29C U58A
Second: G29C U58G
The self-cleavage of the first is higher: 0.213 for the first, 0.077 for the second.

Going from G29C G57U to G29C G57A, the self-cleavage rises from 0.142 to 0.215.

First: A30C G68U
Second: A30C G68C
The self-cleavage of the first is lower: 0.141 for the first, 0.172 for the second.

Compared with G29A A44U, A28U U62C is higher in self-cleavage: 0.226 for the first, 0.272 for the second.

Going from A28U U62A to A28U U62G, the self-cleavage rises from 0.0878 to 0.0982.

Compared with A28C A41C, G27U U33A is lower in self-cleavage: 0.625 for the first, 0.121 for the second.

Going from G27U U33C to G29U A35U, the self-cleavage rises from 0.109 to 0.117.

Going from A28G A35U to A28U A64U, the self-cleavage falls from 1.13 to 0.0714.

First: A28U A64G
Second: A28U A64C
The self-cleavage of the first is lower: 0.167 for the first, 0.278 for the second.

Going from G27U U55G to G27U U55C, the self-cleavage falls from 0.224 to 0.113.

Compared with A28G A59U, G29A G32C is lower in self-cleavage: 0.32 for the first, 0.106 for the second.

Compared with A30C A43G, G27U C48G is higher in self-cleavage: 0 for the first, 0.137 for the second.

Compared with A28G G57U, A28G G57A is lower in self-cleavage: 0.36 for the first, 0.19 for the second.

First: G27C U60A
Second: A28U A31G
The self-cleavage of the first is lower: 0.177 for the first, 0.325 for the second.

Compared with G29A A41U, G27U A39C is lower in self-cleavage: 0.156 for the first, 0.107 for the second.

Compared with G27U A39U, G29C U67C is lower in self-cleavage: 0.144 for the first, 0.0789 for the second.

First: A28C U67C
Second: A30C A71C
The self-cleavage of the first is lower: 0.146 for the first, 0.592 for the second.

Compared with A30C A71G, A28G A36U is higher in self-cleavage: 0.247 for the first, 0.7 for the second.

Compared with G29A C38A, G27U A64C is higher in self-cleavage: 0.108 for the first, 0.173 for the second.

First: G27U A64U
Second: A28U A41C
The self-cleavage of the first is lower: 0.129 for the first, 1.13 for the second.

Going from G29A G34U to G27C G40U, the self-cleavage falls from 0.131 to 0.0774.

First: A28C A43G
Second: A28G U33A
The self-cleavage of the first is lower: 0.129 for the first, 0.157 for the second.

Compared with G27C U58C, G27U A30C is lower in self-cleavage: 0.214 for the first, 0.1 for the second.

First: A28C A47U
Second: G27U G56C
The self-cleavage of the first is lower: 0.0267 for the first, 0.149 for the second.

Compared with A28U C65A, G29C A61C is lower in self-cleavage: 0.497 for the first, 0.206 for the second.

Compared with A30C C46U, A28U A36C is lower in self-cleavage: 0.367 for the first, 0.286 for the second.

Compared with G29A C50U, A28G A41G is higher in self-cleavage: 0.178 for the first, 0.908 for the second.

Going from A28G A41C to A30C U52G, the self-cleavage falls from 0.961 to 0.113.

First: A28U C48A
Second: A28U C48U
The self-cleavage of the first is lower: 0.131 for the first, 0.251 for the second.

First: G27U A49U
Second: A30C U33A
The self-cleavage of the first is higher: 0.141 for the first, 0.0224 for the second.

Compared with G29U A47U, G29U A47C is lower in self-cleavage: 0.169 for the first, 0.0936 for the second.

Going from A28G G34U to A28G G34C, the self-cleavage falls from 1.65 to 0.999.

Compared with G29U A71G, G29U A71U is higher in self-cleavage: 0.171 for the first, 0.185 for the second.

Compared with A28C U33C, A28C G54U is higher in self-cleavage: 0.107 for the first, 0.262 for the second.

Going from A28G A61G to A28U U63G, the self-cleavage falls from 0.279 to 0.105.

First: G29C A41G
Second: G29C A41C
The self-cleavage of the first is higher: 0.142 for the first, 0.0573 for the second.

Compared with A28U A43G, G29A A59U is higher in self-cleavage: 0.0987 for the first, 0.162 for the second.

Going from A30C A45C to G29C C48U, the self-cleavage rises from 0.126 to 0.203.

Compared with G29U C66U, G29U G56A is higher in self-cleavage: 0.106 for the first, 0.162 for the second.

Going from G27U U70C to G29A G54U, the self-cleavage rises from 0.105 to 0.214.

First: G29A G54C
Second: A28U G34A
The self-cleavage of the first is lower: 0.0856 for the first, 0.873 for the second.

First: G27C U55C
Second: G27C G42C
The self-cleavage of the first is higher: 0.186 for the first, 0.165 for the second.

Going from G27C G42A to A28U A35C, the self-cleavage rises from 0.148 to 0.704.

Compared with A28U A35G, A28U A49C is lower in self-cleavage: 0.599 for the first, 0.18 for the second.

Compared with G29C U55C, A28C C50G is lower in self-cleavage: 0.127 for the first, 0.107 for the second.

Going from A28C C50A to G27U C46U, the self-cleavage falls from 0.151 to 0.12.

Going from A28G U53G to A28G U53C, the self-cleavage falls from 1.13 to 1.06.

Going from A28G U53A to A30C A41U, the self-cleavage falls from 1.01 to 0.364.

First: A30C U58C
Second: G29U A45U
The self-cleavage of the first is higher: 0.158 for the first, 0.101 for the second.

Going from G29U A45C to G29A A36G, the self-cleavage rises from 0.0757 to 0.135.

Going from G29A A43C to A28U G29C, the self-cleavage falls from 0.215 to 0.0715.

Going from A28U G29U to A28G U60G, the self-cleavage rises from 0.0995 to 0.97.

Compared with A28G U60C, A28C A31C is lower in self-cleavage: 0.795 for the first, 0 for the second.

Compared with G29C A59U, A28U U53G is higher in self-cleavage: 0.207 for the first, 0.432 for the second.

Going from G29U G68C to G29U C37A, the self-cleavage rises from 0.137 to 0.163.

Going from A28C G40U to A28C G40C, the self-cleavage falls from 0.101 to 0.0679.

Compared with A28C G69A, A28C G69C is higher in self-cleavage: 0.168 for the first, 0.262 for the second.

Compared with A30C G57C, A30C G57A is higher in self-cleavage: 0.0882 for the first, 0.158 for the second.

First: A28G A49C
Second: G29U U63A
The self-cleavage of the first is higher: 0.208 for the first, 0.146 for the second.

First: G27C U62A
Second: A28C A36U
The self-cleavage of the first is lower: 0.205 for the first, 0.302 for the second.

Compared with A28C A36G, A28C A36C is lower in self-cleavage: 0.552 for the first, 0.32 for the second.

Going from A30C G69U to G27U A43U, the self-cleavage falls from 0.124 to 0.106.

First: A28G G54A
Second: A28G A47C
The self-cleavage of the first is higher: 0.646 for the first, 0.42 for the second.

Going from A28G A47U to G27U G68A, the self-cleavage falls from 0.192 to 0.128.

First: A28G A45U
Second: A30C C66G
The self-cleavage of the first is lower: 0.201 for the first, 0.248 for the second.

Going from A28G C65G to A28G C65A, the self-cleavage rises from 0.409 to 0.884.

First: G29U C38G
Second: G29U C38A
The self-cleavage of the first is higher: 0.186 for the first, 0.179 for the second.

Compared with A28U A61C, A28U A61U is lower in self-cleavage: 0.18 for the first, 0.12 for the second.

Compared with A28G G69C, G29A U62A is lower in self-cleavage: 0.46 for the first, 0.123 for the second.

Compared with A28G G42A, G27C U53A is lower in self-cleavage: 0.21 for the first, 0.19 for the second.

Compared with G27C U53G, A28U U33G is lower in self-cleavage: 0.169 for the first, 0.104 for the second.

Going from A30C G34A to G27U G51C, the self-cleavage rises from 0.0999 to 0.158.

Going from G29C G34A to G29C G34U, the self-cleavage falls from 0.158 to 0.0954.

Going from A28C U53C to A28U C38U, the self-cleavage falls from 0.598 to 0.343.

First: A28C U63A
Second: G29U U67G
The self-cleavage of the first is lower: 0.0573 for the first, 0.132 for the second.

First: G29U U67A
Second: A30C A47C
The self-cleavage of the first is lower: 0.0852 for the first, 0.156 for the second.

Going from A28G U58A to A28G U67A, the self-cleavage falls from 0.653 to 0.31.

First: A28U A71C
Second: A28U A71U
The self-cleavage of the first is higher: 1.1 for the first, 0.371 for the second.

Going from A28C U62A to A28C U62G, the self-cleavage rises from 0.159 to 0.18.

Variant A28C U62C has a self-cleavage of 0.203.
